The record followed here is publication PMC9584350.

The target of this test is Arf6 (co-precipitated with FLAG–AMPKα2 from cells), P62330. The test is described as follows: co-immunoprecipitation (IP anti-FLAG, immunoblot for Arf6), band quantification. The following applies: chain shown with the change; HEK 293T cells transfected with FLAG-AMPKα2 and Arf6-myc; n=4; empty (no FLAG-AMPKα2) control = 1; parent: est. 6.0; read off a plot. (In general: Immunoblotting shows a protein as a band on a membrane.)

Numbering of substitutions follows the chain as printed. Numbers in names are those of the source.

Arf6 (co-precipitated with FLAG–AMPKα2 from cells), P62330, sequence (P62330 whole entry): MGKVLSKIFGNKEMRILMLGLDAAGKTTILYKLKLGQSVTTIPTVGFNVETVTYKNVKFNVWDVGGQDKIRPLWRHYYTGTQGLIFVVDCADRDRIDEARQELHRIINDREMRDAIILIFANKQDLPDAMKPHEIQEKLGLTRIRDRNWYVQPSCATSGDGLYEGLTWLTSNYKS

B1: FLAG–AMPKα2-WT, P54646 W402A; H403A; L404A; G405A; I406A (protein)
chain: MAEKQKHDGRVKIGHYVLGDTLGVGTFGKVKIGEHQLTGHKVAVKILNRQKIRSLDVVGKIKREIQNLKLFRHPHIIKLYQVISTPTDFFMVMEYVSGGELFDYICKHGRVEEMEARRLFQQILSAVDYCHRHMVVHRDLKPENVLLDAHMNAKIADFGLSNMMSDGEFLRTSCGSPNYAAPEVISGRLYAGPEVDIWSCGVILYALLCGTLPFDDEHVPTLFKKIRGGVFYIPEYLNRSVATLLMHMLQVDPLKRATIKDIREHEWFKQDLPSYLFPEDPSYDANVIDDEAVKEVCEKFECTESEVMNSLYSGDPQDQLAVAYHLIIDNRRIMNQASEFYLASSPPSGSFMDDSAMHIPPGLKPHPERMPPLIADSPKARCPLDALNTTKPKSLAVKKAKAAAAARSQSKPYDIMAEVYRAMKQLDFEWKVVNAYHLRVRRKNPVTGNYVKMSLQLYLVDNRSYLLDFKSIDDEVVEQRSGSSTPQRSCSAAGLHRPRSSFDSTTAESHSLSGSLTGSLTGSTLSSVSPRLGSHTMDFFEMCASLITTLAR
With B1, the response came out at 1.4.

B2: FLAG–AMPKα2-WT, P54646 E418A; V419A; Y420A; R421A (protein)
chain: B1 chain with A402W, A403H, A404L, A405G, A406I, E418A, V419A, Y420A, R421A
B2: the response was 1.3.
